T1: APBA2_2, Q99767
T1 sequence (Q99767 654-744, limits assumed, looked up): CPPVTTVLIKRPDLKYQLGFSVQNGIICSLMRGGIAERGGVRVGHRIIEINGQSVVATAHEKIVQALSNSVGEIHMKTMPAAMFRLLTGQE

T2: MPDZ_10, O75970
T2 sequence (O75970 1624-1722, limits assumed, looked up): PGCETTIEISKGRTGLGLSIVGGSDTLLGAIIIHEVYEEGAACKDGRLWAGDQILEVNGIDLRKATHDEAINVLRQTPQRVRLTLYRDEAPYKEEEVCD

T3: HTRA3, P83110
T3 sequence (P83110 354-453, limits assumed, looked up): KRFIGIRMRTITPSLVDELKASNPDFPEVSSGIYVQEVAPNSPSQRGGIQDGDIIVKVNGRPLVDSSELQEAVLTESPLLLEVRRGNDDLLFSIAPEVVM

T4: LIN7C, Q9NUP9
T4 sequence (Q9NUP9 88-185, limits assumed, looked up): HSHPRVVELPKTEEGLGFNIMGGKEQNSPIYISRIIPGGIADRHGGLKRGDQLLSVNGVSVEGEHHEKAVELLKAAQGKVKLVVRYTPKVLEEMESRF

T5: DVL3, Q92997
T5 sequence (Q92997 244-331, limits assumed, looked up): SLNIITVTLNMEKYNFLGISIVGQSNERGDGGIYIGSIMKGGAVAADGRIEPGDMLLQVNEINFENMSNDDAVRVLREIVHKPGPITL

T6: APBA2_1, Q99767
T6 sequence (Q99767 563-664, limits assumed, looked up): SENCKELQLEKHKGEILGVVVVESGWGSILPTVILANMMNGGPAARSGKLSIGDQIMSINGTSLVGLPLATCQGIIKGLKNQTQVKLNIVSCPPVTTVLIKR

T7: APBA1_1, Q02410
T7 sequence (Q02410 651-752, limits assumed, looked up): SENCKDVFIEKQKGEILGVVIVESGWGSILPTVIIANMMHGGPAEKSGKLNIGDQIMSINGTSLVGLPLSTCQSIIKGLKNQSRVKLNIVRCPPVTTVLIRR

T8: LNX2_3, Q8N448
T8 sequence (Q8N448 463-564, limits assumed, looked up): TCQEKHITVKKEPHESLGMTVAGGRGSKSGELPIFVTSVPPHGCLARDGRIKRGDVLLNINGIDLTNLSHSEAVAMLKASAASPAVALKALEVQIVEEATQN

T9: SNTA1, Q13424
T9 sequence (Q13424 82-180, limits assumed, looked up): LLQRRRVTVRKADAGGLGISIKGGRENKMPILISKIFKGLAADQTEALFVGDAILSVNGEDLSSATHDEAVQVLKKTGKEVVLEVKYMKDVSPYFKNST

T10: LNX2_2, Q8N448
T10 sequence (Q8N448 334-432, limits assumed, looked up): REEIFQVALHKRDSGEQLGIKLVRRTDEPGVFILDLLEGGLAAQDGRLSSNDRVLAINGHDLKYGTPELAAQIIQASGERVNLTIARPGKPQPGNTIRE

T11: NHERF3_3, Q5T2W1
T11 sequence (Q5T2W1 238-333, limits assumed, looked up): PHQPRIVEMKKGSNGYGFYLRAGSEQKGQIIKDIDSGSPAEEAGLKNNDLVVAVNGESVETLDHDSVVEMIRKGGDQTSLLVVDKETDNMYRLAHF

T12: GRIP1_4, Q9Y3R0
T12 sequence (Q9Y3R0 467-571, limits assumed, looked up): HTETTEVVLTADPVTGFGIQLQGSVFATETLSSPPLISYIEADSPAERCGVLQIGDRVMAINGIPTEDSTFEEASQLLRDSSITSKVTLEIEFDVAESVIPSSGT

T13: APBA1_2, Q02410
T13 sequence (Q02410 742-832, limits assumed, looked up): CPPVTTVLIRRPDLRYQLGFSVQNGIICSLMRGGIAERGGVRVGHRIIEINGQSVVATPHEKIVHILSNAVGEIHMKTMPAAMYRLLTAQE


Tests used:
Assay in all cases: holdup assay
Design in all cases: key: below the threshold = too weak to quantify, mostly under pKd 3.1 to 4
Conditions in all cases: plain residues with an end cap or a label only (N-terminal biotin on a linker: ado-ado)
APBA2_2, Q99767 = biological target: T1, APBA2_2, Q99767
MPDZ_10, O75970 = biological target: T2, MPDZ_10, O75970
LNX1_3, Q8TBB1 = biological target: LNX1_3, Q8TBB1
HTRA3, P83110 = biological target: T3, HTRA3, P83110
MAGI2_2, Q86UL8 = biological target: MAGI2_2, Q86UL8
FRMPD2_3, Q68DX3 = biological target: FRMPD2_3, Q68DX3
GRID2IP_1, A4D2P6 = biological target: GRID2IP_1, A4D2P6
LIN7C, Q9NUP9 = biological target: T4, LIN7C, Q9NUP9
DVL3, Q92997 = biological target: T5, DVL3, Q92997
DLG4_1, P78352 = biological target: DLG4_1, P78352
APBA2_1, Q99767 = biological target: T6, APBA2_1, Q99767
APBA1_1, Q02410 = biological target: T7, APBA1_1, Q02410
LNX2_3, Q8N448 = biological target: T8, LNX2_3, Q8N448
SNTA1, Q13424 = biological target: T9, SNTA1, Q13424
LNX2_2, Q8N448 = biological target: T10, LNX2_2, Q8N448
NHERF3_3, Q5T2W1 = biological target: T11, NHERF3_3, Q5T2W1
GRIP1_4, Q9Y3R0 = biological target: T12, GRIP1_4, Q9Y3R0
Inadl_4, Q8NI35 = biological target: Inadl_4, Q8NI35
SCRIB_1, Q14160 = biological target: SCRIB_1, Q14160
LNX1_2, Q8TBB1 = biological target: LNX1_2, Q8TBB1
NHERF4_4, Q86UT5 = biological target: NHERF4_4, Q86UT5
APBA1_2, Q02410 = biological target: T13, APBA1_2, Q02410
NHERF4_2, Q86UT5 = biological target: NHERF4_2, Q86UT5
PDLIM1, O00151 = biological target: PDLIM1, O00151
GRIP2_4, Q9C0E4 = biological target: GRIP2_4, Q9C0E4
Sequence of GRIP2_4, Q9C0E4 (Q9C0E4 446-548): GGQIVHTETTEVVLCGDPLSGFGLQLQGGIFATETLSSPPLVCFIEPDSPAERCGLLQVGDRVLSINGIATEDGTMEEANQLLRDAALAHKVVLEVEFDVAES

Sequence of FRMPD2_3, Q68DX3 (Q68DX3 1073-1166): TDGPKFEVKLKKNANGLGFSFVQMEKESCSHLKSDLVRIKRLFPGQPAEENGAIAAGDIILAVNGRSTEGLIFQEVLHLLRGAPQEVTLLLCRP
Sequence of NHERF4_4, Q86UT5 (Q86UT5 464-550): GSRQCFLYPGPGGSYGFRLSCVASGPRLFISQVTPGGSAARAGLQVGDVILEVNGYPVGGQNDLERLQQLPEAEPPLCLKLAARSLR
Sequence of PDLIM1, O00151 (O00151 1-87): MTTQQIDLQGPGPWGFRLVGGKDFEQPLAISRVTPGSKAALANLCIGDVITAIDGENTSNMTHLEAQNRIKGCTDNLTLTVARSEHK
Sequence of DLG4_1, P78352 (P78352 62-152): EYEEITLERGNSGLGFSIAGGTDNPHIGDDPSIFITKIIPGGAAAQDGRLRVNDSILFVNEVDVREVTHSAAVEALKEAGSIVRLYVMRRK
Sequence of LNX1_3, Q8TBB1 (Q8TBB1 500-596): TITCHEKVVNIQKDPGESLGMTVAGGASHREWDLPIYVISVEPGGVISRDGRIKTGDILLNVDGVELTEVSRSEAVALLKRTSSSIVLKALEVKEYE
Sequence of MAGI2_2, Q86UL8 (Q86UL8 410-522): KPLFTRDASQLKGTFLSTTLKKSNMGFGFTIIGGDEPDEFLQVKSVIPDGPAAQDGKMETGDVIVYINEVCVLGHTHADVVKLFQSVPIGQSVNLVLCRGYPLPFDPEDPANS
Sequence of NHERF4_2, Q86UT5 (Q86UT5 220-308): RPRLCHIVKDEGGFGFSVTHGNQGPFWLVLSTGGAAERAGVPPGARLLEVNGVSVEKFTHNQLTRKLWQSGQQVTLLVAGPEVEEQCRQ
Sequence of SCRIB_1, Q14160 (Q14160 718-814): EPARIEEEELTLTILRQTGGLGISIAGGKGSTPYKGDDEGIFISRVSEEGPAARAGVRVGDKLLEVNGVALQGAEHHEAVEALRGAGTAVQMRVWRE
Sequence of LNX1_2, Q8TBB1 (Q8TBB1 371-470): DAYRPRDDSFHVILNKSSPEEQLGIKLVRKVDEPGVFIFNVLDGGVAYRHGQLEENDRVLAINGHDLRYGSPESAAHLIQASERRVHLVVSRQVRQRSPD
Sequence of GRID2IP_1, A4D2P6 (A4D2P6 1-87): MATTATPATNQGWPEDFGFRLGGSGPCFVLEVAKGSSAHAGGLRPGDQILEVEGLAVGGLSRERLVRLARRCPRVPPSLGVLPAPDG
Sequence of Inadl_4, Q8NI35 (Q8NI35 547-651): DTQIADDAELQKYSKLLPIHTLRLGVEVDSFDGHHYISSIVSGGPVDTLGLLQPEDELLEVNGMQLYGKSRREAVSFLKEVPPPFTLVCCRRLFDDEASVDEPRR

| Binder | pKd (APBA2_2, Q99767) | pKd (MPDZ_10, O75970) | pKd (LNX1_3, Q8TBB1) | pKd (HTRA3, P83110) | pKd (MAGI2_2, Q86UL8) | pKd (FRMPD2_3, Q68DX3) | pKd (GRID2IP_1, A4D2P6) | pKd (LIN7C, Q9NUP9) | pKd (DVL3, Q92997) | pKd (DLG4_1, P78352) | pKd (APBA2_1, Q99767) | pKd (APBA1_1, Q02410) | pKd (LNX2_3, Q8N448) | pKd (SNTA1, Q13424) | pKd (LNX2_2, Q8N448) | pKd (NHERF3_3, Q5T2W1) | pKd (GRIP1_4, Q9Y3R0) | pKd (Inadl_4, Q8NI35) | pKd (SCRIB_1, Q14160) | pKd (LNX1_2, Q8TBB1) | other results |
| --- | --- | --- | --- | --- | --- | --- | --- | --- | --- | --- | --- | --- | --- | --- | --- | --- | --- | --- | --- | --- | --- |
| TGPWKNETTV [ADGRA1, Q86SQ6] | below the threshold | below the threshold | below the threshold | below the threshold | 5.17 | below the threshold | below the threshold | 4.27 | below the threshold | 4.99 | below the threshold | below the threshold | below the threshold | 4.59 | 4.93 | below the threshold | below the threshold | below the threshold | 4.34 | 3.62 | pKd (NHERF4_4, Q86UT5): 3.9; pKd (APBA1_2, Q02410): below the threshold; pKd (NHERF4_2, Q86UT5): below the threshold; pKd (PDLIM1, O00151): below the threshold; pKd (GRIP2_4, Q9C0E4): below the threshold |
| REKKFFCTIL [GNG4, P50150] | 3.47 | 4.3 | 3.95 | 3.78 | 4.63 | below the threshold | below the threshold | below the threshold | 4.33 | 4.06 | below the threshold | below the threshold | below the threshold | 4.35 | 4.06 | 3.5 | 3.56 | below the threshold | 5.33 | below the threshold | pKd (NHERF4_4, Q86UT5): 3.76; pKd (APBA1_2, Q02410): 4.71; pKd (NHERF4_2, Q86UT5): below the threshold; pKd (PDLIM1, O00151): below the threshold; pKd (GRIP2_4, Q9C0E4): below the threshold |

More lines, main results first:

| pKd (APBA2_2, Q99767) | pKd (MPDZ_10, O75970) | pKd (LNX1_3, Q8TBB1) | pKd (HTRA3, P83110) | pKd (MAGI2_2, Q86UL8) | pKd (FRMPD2_3, Q68DX3) | pKd (GRID2IP_1, A4D2P6) | pKd (LIN7C, Q9NUP9) | pKd (DVL3, Q92997) | pKd (DLG4_1, P78352) | pKd (APBA2_1, Q99767) | pKd (APBA1_1, Q02410) | pKd (LNX2_3, Q8N448) | pKd (SNTA1, Q13424) | pKd (LNX2_2, Q8N448) | pKd (NHERF3_3, Q5T2W1) | pKd (GRIP1_4, Q9Y3R0) | pKd (Inadl_4, Q8NI35) | pKd (SCRIB_1, Q14160) | pKd (LNX1_2, Q8TBB1) | Binder | other results |
| --- | --- | --- | --- | --- | --- | --- | --- | --- | --- | --- | --- | --- | --- | --- | --- | --- | --- | --- | --- | --- | --- |
| below the threshold | 3.65 | below the threshold | 3.64 | 4.69 | below the threshold | below the threshold | below the threshold | below the threshold | 4.04 | below the threshold | below the threshold | below the threshold | below the threshold | 3.78 | below the threshold | below the threshold | below the threshold | below the threshold | below the threshold | RRLQGTSSMV [GOLT1A, Q6ZVE7] | pKd (NHERF4_4, Q86UT5): below the threshold; pKd (APBA1_2, Q02410): 3.71; pKd (NHERF4_2, Q86UT5): below the threshold; pKd (PDLIM1, O00151): below the threshold; pKd (GRIP2_4, Q9C0E4): below the threshold |
| below the threshold | 3.87 | below the threshold | 5.86 | below the threshold | below the threshold | below the threshold | below the threshold | below the threshold | below the threshold | below the threshold | 3.67 | below the threshold | below the threshold | 4.59 | below the threshold | below the threshold | below the threshold | below the threshold | 3.83 | RDFDYIADWC [PKN2, Q16513] | pKd (NHERF4_4, Q86UT5): below the threshold; pKd (APBA1_2, Q02410): 3.82; pKd (NHERF4_2, Q86UT5): below the threshold; pKd (PDLIM1, O00151): below the threshold; pKd (GRIP2_4, Q9C0E4): below the threshold |
| below the threshold | 3.56 | below the threshold | 4.24 | below the threshold | 3.54 | below the threshold | below the threshold | below the threshold | below the threshold | below the threshold | below the threshold | below the threshold | below the threshold | 3.55 | below the threshold | below the threshold | below the threshold | 3.8 | below the threshold | ALPLPQSSTC [IGF1R, P08069] | pKd (NHERF4_4, Q86UT5): below the threshold; pKd (APBA1_2, Q02410): below the threshold; pKd (NHERF4_2, Q86UT5): below the threshold; pKd (PDLIM1, O00151): below the threshold; pKd (GRIP2_4, Q9C0E4): below the threshold |

Reference: article PMC9482650, “Quantitative fragmentomics allow affinity mapping of interactomes” (Nature Communications, 2022)
